Source: the DeepSol protein solubility set

Assay: soluble on expression in E. coli; label from the status in PepcDB or PDB records

Row | Sequence | soluble on expression in E. coli
1 | MQDDKKVAFPGDMIATTEEYLPGKNTEEKNGEIIAVKFGQIIRDDINLLISVDTQKKEFTLKKGDIVYGQVVKGEQHRYIVRIVGAFQKGLGLREIDEEMQLSLGIARRPQSDFIAIGDLIRGYVIRTGDFPEISINGNHYGVISAVCLRCRQPLVKRGITLYCENCQRTEIRKMADDYGNVDIFNYENRIQNQVKANGKRRLEHHHHHH | soluble
2 | MQDPYVKEAENLKKYFNAGHSDVADNGTLFLGILKNWKEESDRKIMQSQIVSFYFKLFKNFKDDQSIQKSVETIKEDMNVKFFNSNKKKRDDFEKLTNYSVTDLNVQRKAIDELIQVMAEFSTEEQQEGPYVKEAENLKKYFNAGHSDVADNGTLFLGILKNWKEESDRKIMQSQIVSFYFKLFKNFKDDQSIQKSVETIKEDMNVKFFNSNKKKRDDFEKLTNYSVTDLNVQRKAIHELIQVMAELSPAAKTGKRKRSQMLFRG | soluble
3 | MQDTIFLKGMRFYGYHGALSAENEIGQIFKVDVTLKVDLSEAGRTDNVIDTVHYGEVFEEVKSIMEGKAVNLLEHLAERIANRINSQYNRVMETKVRITKENPPIPGHYDGVGIEIVRENK | soluble
4 | MQENPTVWLFDLDNTLHDADAGIFHLINRAMTRYMARRLKLSESAASDLRQDYWHRYGATLAGLQIHHPEIDIAEFLRESHPIDAILTRLHGMADTENTLCRLNGRKAVFSNGPSFYVRAVAGALGLENCFDALFGTDDFGLLYKPNPQAYLNVCRLLDVPPECCIMVDDSADNLHQAKALGMKTVRFGAKSHAPPFIDASVSDMAQLARYAETLSERRQNHYNTRTPRKYERMLCVKPSLS | not soluble
5 | MQERHTEQDYRALLIADTPIIDVRAPIEFEQGAMPAAINLPLMDNDERASVGTCYKQQGSDAALALGHKLVAGEIRQQRMYAWRAACLQNPQGILCCARGGQRSHIVQRWLHEAGIDYPLVEGGYKALRQTAIQATIELAQKPIVLIGGCTGSGKTLLVQQQPNGVDLEGLARHRGSAFGRTLQPQLSQASFENLLAAEMLKTDARQDLRLWVLEDESRMIGSNHLPECLRERMTQAAIAVVEDPFEIRLERLNEEYFLRMHHDFTHAYGDEQGWQEYCEYLHHGLSAIKRRLGLQRYNELAAQLDTALTTQLTTGSTDGHLAWLVPLLKEYYDPMYRYQLEKKAEKVVFRGEWAEVAVWVKAQLEHHHHHH | not soluble
6 | MQGQIIKALAGFYYVESDGQVYQTRARGNFRKKGHTPYVGDWVDFSAEENSEGYILKIHERKNSLVRPPIVNIDQAVVIMSVKEPDFNSNLLDRFLVLLEHKGIHPIVYISKMDLLEDRGELDFYQQTYGDIGYDFVTSKEELLSLLTGKVTVFMGQTGVGKSTLLNKIAPDLNLETGEISDSLGRGRHTTRAVSFYNLNGGKIADTPGFSSLDYEVSRAEDLNQAFPEIATVSRDCKFRTCTHTHEPSCAVKPAVEEGVIATFRFDNYLQFLSEIENRRETYKKVSKKIPK | not soluble
7 | MQGSVTEFLKPRLVDIEQISTTHAKVTLEPLERGFGHTLGNALRRILLSSMPGCAVTEVEIEGVLHEYSTKEGVQEDILEILLNLKGLAVRVAEGKDEVFITLNKSGSGPVVAGDITHDGDVEIVNPEHVICHLTSDNAAIAMRIKVERGRGYVPASARIHTEEDERPIGRLLVDATFSPVDKIAYSVEAARVEQRTDLDKLVIDMETNGTLEPEEAIRRAATILAEQLDAFVDLRDVRVPEEKEEKPEFDPILLRPVDDLELTVRSANCLKAEAIHYIGDLVQRTEVELLKTPNLGKKSLTEIKDVLASRGLSLGMRLENWPPASIAED | soluble
8 | MQGVKERFLPLGNSGDRAPRPPDGRGRVRPRTQDGVGNHTMARIPKTLKFVVVIVAVLLPVSPRRGPWLGKSAPGAGRGQGDGDTAGMPGPGHLRPGMSGQDELAVGVRGRTGSPGWAGGTRPRGSREAVPLAAPSPRREGSSRIERGRESRWNP | soluble
9 | MQHIYVPYHVRDHPMSSVCERFERELRRGAIQLEVICLLENERYGYEIVKKLKESGFRVEEGTLYPLLRRLEGEGILSSRWSTDDTRPRKYYTVTDYGKRVRKKWLELFRSINRSLEDLTEVDQ | not soluble
10 | MQHQTLYQDDFVEIFEQDNEVFIKTFKPGLPPKQLNEILSSLPQIQITSFNCLNDALNIVSPSPQKFGRLKERIAITVTPDELKAFVTFNLPREELDIKNRENLIKETYQVLKKKNINFGIKKELFFGDLESGKKYLIAEGVPAVDGEDCKIRMYELEEPRPEIREDGKANYYELKLINKVKAGDWLGERIDATEGFPGKTVYGTTIHPVRGKNYPLSYDKNTVYEVVQNKKVVLYSKIDGAVHYDGNKITVSNHLEIDGDVDFKTGNIIFDGYVTIKGTVTDGFYVEATKDIEINSPLGLGNVKGIKSREGSIYIKGGISSKSFSEISARKNIYTKFVDNVKLSCGGTAHIGFYCINSMVEAKEVFIESIKGNIMGGQVKAEVKITVPVLGSPLEPRTVLILTGFDRKKLSKMLEDIVDRIDRIKEEQMDIKLYLSKQDPFKEMTSRETAEYNSKMQRMSELKAELKSLEEEKKNIARYLKTKGEGEIAITKKVYPNCSIIIKNIQTEIKEPCLATTFFAADGEIKRV | soluble
11 | MQILEPQQFATWNEPIEMLYACHSKVKRFCRQLSILPDYLEKHGYTQAVLNDVEQILSYFNRAAPLHHDDEELDFFPQLVKVAPQTQTSIDELEKQHEYLHENWNALSVQLEELISEQRQDIDKHLIERFIQGYDRHIALEEPLFEMGRECLSADILTEMGKHMSARRQVKE | not soluble
12 | MQIRFAGIGGQGVVLAGVILGEAAAIEGLRVLQTQDYSSASRGGHSIADVIISNEEIYDVMVTEADVLVALHQLGYETAKSKLKKDGILIIDTDLVKPDREYIGAPFTRIAEETTGLALTVNMVALGYLIGKTQIVKPESVEEAIRRRVPKGTEEINIKAFRKGLEVSMNE | not soluble
13 | MQKIKVQDAIGSVLMHDLTQIIPGKTKDARFRKGHVIKEEDIPTLLSMGKEHIFVWDQTPGLIHEDEAAERLAKAVAGPGLSFSETKEGKVNLIAEEDGLIYASEEGIYALNSLEYIILATLHNHRPVKKGQKIAGTRVVPLMIDENVVIEAEGIARRFEEPILQIRPLQSKKVGVVTTGSEVYHGRIQDKFGPVLQRKVAEWGSVLLGQTFADDDVEMIQERIREHIEQGAEMVLVTGGMSVDPDDLTPTAIKGLGGRVDHLWHSCSSRSHAVAGLPGLEHHHHHH | not soluble
14 | MQKTLSAIFLFTTLSANAAPYIGLELGIGTANHSFETNYQSDAVSLNPNMEDMFLGGLIGYKFNDNFSFEINYSSYKLEDQYSKFIGIESLNNQQYRKEHEWSSEIEAKQLALISVYSYPIHQQLKTNIKVGVTHTQYEAYSGKYEELELLLNDDIEIRKALLETGLKKNRFGALFSLGLDYNLIPELSVGTELRYQFDKYNDVLSISLNSKYYF | not soluble
15 | MQKTVVEIEKASHVLKLLGDKTRLTIMAILKQRECCVCELLEVFDMSQPAISQHLRKLKDAGLVKEDKRGQWIYYSLNSQNELYDFIQDILQHIPDQTENIRKIEETNPTLRCGC | soluble
16 | MQLEPQIKTQLQAIVEAARERRAEDVVALDLTEVSSSLEYFVICTASAGLQLNAVQENIREKAQEAGLPRPSIEGPSERWLLLAFGGSIVVHIMTKDAREYYDLEGLWSDAKVLDL | soluble
17 | MQLGDKQLVVQLACANQQRHNTNLPNSASAIAGIDLSQGAGRATEILCLMNMVTEDELKADDEYEEILEDVRDECSKYGIVRSLEIPRPYEDHPVPGVGKVFVEFASTSDCQRAQAALTGRKFANRTVVTSYYDVDKYHNRQF | not soluble
18 | MQLGETAEEACLRELYEETGLQLEIERLAFIHENFFTGQESDFLNKVNCHELSFYFLMKPLTENLSVKSESFGTDGSKEFLKWIPIAEYKNYKAFPTFFADELKNLSVNSQIKRIVTTELEHHHHHH | not soluble
19 | MQLKTEYGKIDPYITKDGSIIRELMHPAIHGNSGQSLAEATVPAGGQTMLHKHAVAEEIYHITEGCGIMTLGGQEFEIRKGDTVCILPGTPHRIMNTGEKELKILCCCAPAYSHEDTELMKLEHHHHHH | soluble
20 | MQNGYTYEDYQDTAKWLLSHTEQRPQVAVICGSGLGGLVNKLTQAQTFDYSEIPNFPESTVPGHAGRLVFGILNGRACVMMQGRFHMYEGYPFWKVTFPVRVFRLLGVETLVVTNAAGGLNPNFEVGDIMLIRDHINLPGFSGENPLRGPNEERFGVRFPAMSDAYDRDMRQKAHSTWKQMGEQRELQEGTYVMLGGPNFETVAECRLLRNLGADAVGMSTVPEVIVARHCGLRVFGFSLITNKVIMDYESQGKANHEEVLEAGKQAAQKLEQFVSLLMASIPV | soluble
21 | MQNIPPQVQAMLGQLDTYQQQLQLVIQQKQKVQADLNEAKKALEEIETLPDDAQIYKTVGTLIVKTTKEKAVQELKEKIETLEVRLNALNRQEQKINEKVKELTQKIQAALRPPTAG | soluble
22 | MQPFDSRQADEVATLLALAEHGSFAAAGRALQRHPSVLSKRLGALERRLGIRLVERTTRQLRFTDEGERLASRFRQAVDLLDEAEHEASLGAAQLRGRLRIALPSAMGRLWLGPLLAEFALAHPQVVLETDYSERFVDIIAEGFDLAIRVGELADSRLVARRLCAHRRILGAAPDYLKRHGVPRIPADLAAHNCLGFSGLHSYPEWKLTRQDEQQPVRVRGSMVSNDNEALLCAARQGLGIFAAGEWLMSRDLEAGRLVRVLPEWKLDADAGVYLVRPSARYATAAASAFRQWVEARFAAGPPWQRQRA | not soluble
23 | MQPTPTQRPEAIVHDEKAQLDFARDMSYGDYLHLDELLGAQHPLSPEHNEMLFIVQHQTSELWMKLMLHELRAAIAAIQQDRLQPAFKMLARVSKILEQLVSAWDVLATMTPPEYSALRPYLAHSSGFQSYQYRQIEYLLGNKNAAMLQPHAHRADLLAQVRAAFEAPSLYDEALRFLARSGLAVPAGALQRDWTQPYRADDQVEQAWLTVYRQSERYWNQYQLGEKLTDLEDAFRLWRFRHVTTVERIIGFKRGTGGTSGVTYLRKMLEVVLFPEIWKLRTDLLEHHHHHH | not soluble
24 | MQQERTVKVSKYLSKHLRHQPERIGLTPDEGGWVEIDALVAAAAAHGFPFTRQELDHVVATNDKRRFAVEGTRIRASQGHSIAVDLRLPVATPPPYLYHGTVARHLEAIRAEGLRPMNRHDVHLSPDRETATRVGARRGRPVVLPVDAATMHRDGHVFHVSANGVWLTQHVPSRYLRFPAPHLEHHHHHH | not soluble
25 | MQQPINYIMNIMHLERDLKRLTSNWSSATGLSLNELRILVYVEQHPGIQIGDVANALNVAKASLAQNIGTLITQGWLKSQPIKQDRRLRVLTLTKAGQDRMKDVDAQLTKSLDTTPATQLADQLSALQL | not soluble
26 | MQRFVFGGKLWKFNETFGCYDDYPHVAPFLAVEHFASFPVHPPTFIFSNAAVSNILSMEEIKSVLIRLDELISSNNLHNHPCLISQAGAQATMRLASKDQLRSDWNTSVEIPFCLYVTQNGVCPRQFDYEDLHKQSQWVALFEEVILPLDKMQGSKLSKIAPHQHSSVVKNAIMKSKREKKTSCKKHSKSISGIDSSSSGCNSL | not soluble
